Patent US20210171647A1 (WUXI BIOLOGICS SHANGHAI, published 2021)

What was measured:
Experiment in all cases: ELISA, antibody coated, OX40-ECD.His mutant supernatant; relative to silent alanine substitutions;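 further: captured OX40 mutant protein detected with HRP-labelled anti-His antibody, absorbance read-out, scaled to the mean signal of control mutants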
human OX40-ECD.His S57A = target: T1, human OX40-ECD.His S57A (human, UniProt P43489 29-214)
T1 construct: extracellular domain; not shown: C-terminal His-tag
T1 sequence (looked up): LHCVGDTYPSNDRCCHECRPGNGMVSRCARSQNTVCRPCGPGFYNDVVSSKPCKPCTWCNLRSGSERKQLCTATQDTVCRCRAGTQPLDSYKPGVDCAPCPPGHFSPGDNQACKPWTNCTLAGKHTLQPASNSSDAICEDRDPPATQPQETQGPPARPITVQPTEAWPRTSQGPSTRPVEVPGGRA

human OX40-ECD.His D34A = target: T2, human OX40-ECD.His D34A (human, UniProt P43489 29-214)
T2 construct: extracellular domain; not shown: C-terminal His-tag
T2 sequence (looked up): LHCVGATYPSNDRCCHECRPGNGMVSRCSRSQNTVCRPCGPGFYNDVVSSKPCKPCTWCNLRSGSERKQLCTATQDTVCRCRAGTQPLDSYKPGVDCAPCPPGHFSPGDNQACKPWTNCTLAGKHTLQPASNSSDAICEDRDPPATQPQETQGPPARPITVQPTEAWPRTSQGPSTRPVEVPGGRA

human OX40-ECD.His E167A = target: T3, human OX40-ECD.His E167A (human, UniProt P43489 29-214)
T3 construct: extracellular domain; not shown: C-terminal His-tag
T3 sequence (looked up): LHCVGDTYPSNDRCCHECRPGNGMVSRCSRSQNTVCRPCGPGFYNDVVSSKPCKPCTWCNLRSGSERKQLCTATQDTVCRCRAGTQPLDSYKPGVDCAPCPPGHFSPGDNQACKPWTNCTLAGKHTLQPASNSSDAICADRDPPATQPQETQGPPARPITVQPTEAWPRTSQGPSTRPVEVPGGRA

human OX40-ECD.His D170A = target: T4, human OX40-ECD.His D170A (human, UniProt P43489 29-214)
T4 construct: extracellular domain; not shown: C-terminal His-tag
T4 sequence (looked up): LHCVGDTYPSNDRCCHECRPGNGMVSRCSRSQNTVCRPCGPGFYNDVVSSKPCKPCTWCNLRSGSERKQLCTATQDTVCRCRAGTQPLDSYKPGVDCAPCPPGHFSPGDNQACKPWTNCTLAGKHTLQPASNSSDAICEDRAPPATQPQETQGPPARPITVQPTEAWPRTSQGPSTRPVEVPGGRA

human OX40-ECD.His Y72A = target: T5, human OX40-ECD.His Y72A (human, UniProt P43489 29-214)
T5 construct: extracellular domain; not shown: C-terminal His-tag
T5 sequence (looked up): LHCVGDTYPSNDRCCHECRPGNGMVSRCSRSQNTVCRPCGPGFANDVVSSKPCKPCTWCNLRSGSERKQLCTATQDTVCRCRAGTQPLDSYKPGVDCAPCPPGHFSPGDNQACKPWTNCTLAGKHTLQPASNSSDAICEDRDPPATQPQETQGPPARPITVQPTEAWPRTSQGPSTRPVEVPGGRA

human OX40-ECD.His T145A = target: T6, human OX40-ECD.His T145A (human, UniProt P43489 29-214)
T6 construct: extracellular domain; not shown: C-terminal His-tag
T6 sequence (looked up): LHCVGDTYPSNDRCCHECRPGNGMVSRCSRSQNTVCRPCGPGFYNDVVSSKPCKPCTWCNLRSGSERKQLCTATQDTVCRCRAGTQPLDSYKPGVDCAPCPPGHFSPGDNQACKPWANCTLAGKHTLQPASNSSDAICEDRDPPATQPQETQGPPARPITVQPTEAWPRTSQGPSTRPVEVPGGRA

human OX40-ECD.His D104A = target: T7, human OX40-ECD.His D104A (human, UniProt P43489 29-214)
T7 construct: extracellular domain; not shown: C-terminal His-tag
T7 sequence (looked up): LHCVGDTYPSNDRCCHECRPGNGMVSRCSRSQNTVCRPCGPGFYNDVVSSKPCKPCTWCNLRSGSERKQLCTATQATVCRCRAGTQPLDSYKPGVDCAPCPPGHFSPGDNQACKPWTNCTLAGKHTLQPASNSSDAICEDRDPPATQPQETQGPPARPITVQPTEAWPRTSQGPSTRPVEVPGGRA

human OX40-ECD.His W144A = target: T8, human OX40-ECD.His W144A (human, UniProt P43489 29-214)
T8 construct: extracellular domain; not shown: C-terminal His-tag
T8 sequence (looked up): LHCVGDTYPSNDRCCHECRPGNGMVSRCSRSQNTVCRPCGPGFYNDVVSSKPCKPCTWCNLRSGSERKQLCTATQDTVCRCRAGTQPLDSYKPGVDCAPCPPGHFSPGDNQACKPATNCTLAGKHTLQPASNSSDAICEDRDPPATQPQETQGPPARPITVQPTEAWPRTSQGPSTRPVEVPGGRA

human OX40-ECD.His P127A = target: T9, human OX40-ECD.His P127A (human, UniProt P43489 29-214)
T9 construct: extracellular domain; not shown: C-terminal His-tag
T9 sequence (looked up): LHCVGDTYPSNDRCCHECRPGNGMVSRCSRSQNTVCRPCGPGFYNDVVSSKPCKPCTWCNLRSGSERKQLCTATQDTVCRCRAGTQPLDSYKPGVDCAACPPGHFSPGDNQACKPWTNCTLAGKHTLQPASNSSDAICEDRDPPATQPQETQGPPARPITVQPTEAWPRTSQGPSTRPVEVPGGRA

human OX40-ECD.His G131A = target: T10, human OX40-ECD.His G131A (human, UniProt P43489 29-214)
T10 construct: extracellular domain; not shown: C-terminal His-tag
T10 sequence (looked up): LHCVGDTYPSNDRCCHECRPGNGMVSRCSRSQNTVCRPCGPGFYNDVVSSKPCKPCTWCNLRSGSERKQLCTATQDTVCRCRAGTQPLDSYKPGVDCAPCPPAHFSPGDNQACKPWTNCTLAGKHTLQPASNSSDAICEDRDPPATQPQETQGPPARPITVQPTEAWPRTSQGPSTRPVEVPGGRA

Fold Change (human OX40-ECD.His S57A): 0.963 | Fold Change (human OX40-ECD.His D34A): 0.991 | Fold Change (human OX40-ECD.His E167A): 0.998 | Fold Change (human OX40-ECD.His D170A): 1.01 | Fold Change (human OX40-ECD.His Y72A): 0.384 | Fold Change (human OX40-ECD.His T145A): 0.675 | Fold Change (human OX40-ECD.His D104A): 0.692 | Fold Change (human OX40-ECD.His W144A): 0.881 | Fold Change (human OX40-ECD.His P127A): 0.953 | Fold Change (human OX40-ECD.His G131A): 0.958
B1: 1.134.9-u1-IgG1L (antibody, V domains shown)
VH: QVQLQESGPGLVKPSGTLSLTCAVSGGSISSYNWWSWVRQPPGKGLEWIGEIYHGGNTNYNPSLKSRVTMSVDNSKNQFSLKLSSVTAADTAVYYCARAPGDWGGSPYFDFWGQGTLVTVSS
VL: SSELTQDPAVSVALGQTVRITCQGDNLRTYYASWYQQKPGQAPILLIYGRNKRPSGIPDRFSGSSSGNTASLTITGAQAEDEAAYYCNSRDSSGNPVVFGGGTKLTVL
notes: fully human IgG1, lambda
